Measured values reported in PMC7221075.

Assays:
[1] = molecular target: TMH-iLID membrane anchor (transmembrane helix of E. coli TatA, Val-Leu, Flag peptide, iLID) (Escherichia coli)
[2] = molecular target: TMH-LOV2 V416L membrane anchor (Escherichia coli | Avena sativa)
[3] = molecular target: TMH-LOV2 V416L membrane anchor (Escherichia coli | Avena sativa); remark: listed apart in the source

| Substance | light/dark secretion ratio (L/D ratio) of native T3SS substrates, in vitro secretion assay, LITESEC-supp2 (anchor from pACYC184) [1] | secretion efficiency of heterologous cargo expressed from plasmid (YopE1-53-NanoLuc-FLAG), LITESEC-act3, in light [2] [%] | light/dark secretion ratio (L/D ratio) of native T3SS substrates, in vitro secretion assay, LITESEC-act2 (anchor from pBAD) [3] | light/dark secretion ratio (L/D ratio) of native T3SS substrates, in vitro secretion assay, LITESEC-act3 (anchor from pACYC184) [3] |
| --- | --- | --- | --- | --- |
| SspB_Nano-SctQ bait fusion protein | 0.26 | – | – | – |
| Zdk1-SctQ bait fusion protein | – | 50 | 2.16 | 4.18 |
